The source of these data is US20030108521A1 (published 2003).

This assay addresses T1, F/IX delta 111-140 (human; human adenovirus type 5, UniProt P03372 553-595).
T1 construct: domain: F domain; N-terminally F-tagged pIX truncated after residue 110 (lacks half of the leucine-repeat)
T1 sequence: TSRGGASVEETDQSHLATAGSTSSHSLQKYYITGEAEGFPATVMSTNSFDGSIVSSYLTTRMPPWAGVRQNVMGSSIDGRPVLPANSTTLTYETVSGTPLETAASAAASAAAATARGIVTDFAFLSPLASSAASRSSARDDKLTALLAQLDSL
The assay can be described thus: co-immunoprecipitation with anti-F antibody from A549 cell extracts, Western blot with anti-pIX.

B1: non-tagged wild type adenovirus type 5 protein IX (other)
chain: MSTNSFDGSIVSSYLTTRMPPWAGVRQNVMGSSIDGRPVLPANSTTLTYETVSGTPLETAASAAASAAAATARGIVTDFAFLSPLASSAASRSSARDDKLTALLAQLDSLTRELNVVSQQLLDLRQQVSALKASSPPNAV
notes: tested in cell extracts; also called wt pIX; untagged wt pIX
Turning to B1, the binding result is on record as “no binding”.
